For this assay, the target named is mouse full-length TrkB (TrkB.FL) (mouse). Briefly: cell-based or functional assay.

“BDNF (brain derived neurotrophic factor), supplied by Regeneron Pharmaceuticals (from UniProt P23560 129-247) (ligand)” returned a TrkB phosphorylation in Ts16 neurons against euploid neurons of 33 % less and a neuron survival 36 hours after B27 withdrawal of 65%.

(Values after US20040110711A1.)
